# Measurements taken from ChEMBL document CHEMBL1649076, “Discovery of 5-chloro-N2-[(1S)-1-(5-fluoropyrimidin-2-yl)ethyl]-N4-(5-methyl-1H-pyrazol-3-yl)pyrimidine-2,4-diamine (AZD1480) as a novel inhibitor of the Jak/Stat pathway” (J Med Chem, 2011).
# B1: Tyrosine-protein kinase JAK2 (Homo sapiens), O60674 (protein)
# chain: MGMACLTMTEMEGTSTSSIYQNGDISGNANSMKQIDPVLQVYLYHSLGKSEADYLTFPSGEYVAEEICIAASKACGITPVYHNMFALMSETERIWYPPNHVFHIDESTRHNVLYRIRFYFPRWYCSGSNRAYRHGISRGAEAPLLDDFVMSYLFAQWRHDFVHGWIKVPVTHETQEECLGMAVLDMMRIAKENDQTPLAIYNSISYKTFLPKCIRAKIQDYHILTRKRIRYRFRRFIQQFSQCKATARNLKLKYLINLETLQSAFYTEKFEVKEPGSGPSGEEIFATIIITGNGGIQWSRGKHKESETLTEQDLQLYCDFPNIIDVSIKQANQEGSNESRVVTIHKQDGKNLEIELSSLREALSFVSLIDGYYRLTADAHHYLCKEVAPPAVLENIQSNCHGPISMDFAISKLKKAGNQTGLYVLRCSPKDFNKYFLTFAVERENVIEYKHCLITKNENEEYNLSGTKKNFSSLKDLLNCYQMETVRSDNIIFQFTKCCPPKPKDKSNLLVFRTNGVSDVPTSPTLQRPTHMNQMVFHKIRNEDLIFNESLGQGTFTKIFKGVRREVGDYGQLHETEVLLKVLDKAHRNYSESFFEAASMMSKLSHKHLVLNYGVCVCGDENILVQEFVKFGSLDTYLKKNKNCINILWKLEVAKQLAWAMHFLEENTLIHGNVCAKNILLIREEDRKTGNPPFIKLSDPGISITVLPKDILQERIPWVPPECIENPKNLNLATDKWSFGTTLWEICSGGDKPLSALDSQRKLQFYEDRHQLPAPKWAELANLINNCMDYEPDFRPSFRAIIRDLNSLFTPDYELLTENDMLPNMRIGALGFSGAFEDRDPTQFEERHLKFLQQLGKGNFGSVEMCRYDPLQDNTGEVVAVKKLQHSTEEHLRDFEREIEILKSLQHDNIVKYKGVCYSAGRRNLKLIMEYLPYGSLRDYLQKHKERIDHIKLLQYTSQICKGMEYLGTKRYIHRDLATRNILVENENRVKIGDFGLTKVLPQDKEYYKVKEPGESPIFWYAPESLTESKFSVASDVWSFGVVLYELFTYIEKSKSPPAEFMRMIGNDKQGQMIVFHLIELLKNNGRLPRPDGCPDEIYMIMTECWNNNVNQRPSFRDLALRVDQIRDNMAG
# Substrate: Cc1cc(Nc2nc(N[C@H](C)c3ncc(F)cn3)ncc2Cl)n[nH]1
# Description: Inhibition of JAK2 using Km ATP concentration
protein,measurement,value
B1,Km,0.031 µM
